Assay [1] has as its system SW620 cells. In words: Stimulation of SW620 cells with Notch ligands (co-culture or plate-bound) for EMT induction. Type of assay: cell-based, human. The conditions noted are these: exogenous ligand in trans by co-culture or plate-bound; data not shown.
Assay [2] relates to SW620 cells. In words: Chemical inhibition of Notch signaling: E-cadherin staining of β2 ECD-treated SW620 cells. Type of assay: cell-based, human. The protocol:
Vimentin and actin cytoskeleton (rhodamine-phalloidin): cells were fixed in 4% paraformaldehyde for 20 minutes at room temperature and permeabilzed with 0.05% saponin for 5 minutes at room temperature. For β2, REST, cleaved-Notch1 NICD and E-cadherin staining: cells were fixed in methanol at 4° C. for 2 minutes. Primary antibody incubation was at room temperature for 1 hour (for vimentin staining), or for 15 minutes (for rhodamine-phalloidin staining) or at 37° C. for 1 hour (for β2, REST, cleaved-Notch1 NICD and E-cadherin staining). Secondary antibody incubation was at room temperature for 30 minutes. […]
Images were converted from Photoshop format to Tif in Photoshop CS2 (version 9.0.2, Adobe; San Jose, Calif.). […] Typically, 5 independent regions were analyzed and combined for each analysis.
Activation of Notch signaling requires cleavage of the receptor by both an ADAM protease and gamma-secretase to release the Notch intracellular domain (NICD). […] SW620 cells were mixed with DMSO (vehicle control) or the specific gamma-secretase inhibitor DAPT (N—[N-(3,5-difluorophenylacetyl-L-alanine)]-S-phenylglycine t-butylester) at 500 nM in DMSO, treated with β2 ECD in conditioned media, and analyzed for loss of E-cadherin. […]

The test system of assay [3] is naïve CHO cells, MDCK cells, HUVEC (endothelial), or tumor cell lines NCI-H226, SW620, SW480, and PC-3. In words: β2 ECD induced phenotype assay (actin cytoskeleton, morphology). It counts as cell-based. The conditions noted are these: conditioned media containing β2 ECD, 48-72 hours. The method, then: (§1) Vimentin and actin cytoskeleton (rhodamine-phalloidin): cells were fixed in 4% paraformaldehyde for 20 minutes at room temperature and permeabilzed with 0.05% saponin for 5 minutes at room temperature. For β2, REST, cleaved-Notch1 NICD and E-cadherin staining: cells were fixed in methanol at 4° C. for 2 minutes. Primary antibody incubation was at room temperature for 1 hour (for vimentin staining), or for 15 minutes (for rhodamine-phalloidin staining) or at 37° C. for 1 hour (for β2, REST, cleaved-Notch1 NICD and E-cadherin staining). Secondary antibody incubation was at room temperature for 30 minutes. Antibodies used were as following: α-ankyrin monoclonal antibody (Chemincon International, Temecula, Calif.); α-vimentin monoclonal antibody (Sigma-Aldrich, St. Louis, Mo.); rhodamine-phalloidin (Molecular Probes, Eugene, Oreg.), α-REST polyclonal antibody (Upstate, Lake Placid, N.Y.), α-E-cadherin monoclonal antibody (Invitrogen, Carlsbad, Calif.), α-Notch1 (Val1744 peptide, detects both intact and cleaved Notch1 NICD) (Cell Signaling, Danvers, Mass.) or α-β2 monoclonal antibody (Genentech, Inc.). Secondary antibodies were as follows: Cy3-conjugated rabbit α-mouse IgG or Cy3-conjugated donkey α-rabbit IgG (Jackson Lab, Bar Harbor, Me.). Slides were mounted with Vectashield mounting media with DAPI (4′,6-diamidino-2-phenylindole) (Vector Lab, Burlingame, Calif.). […]

The test system of another assay is HEK293 cells. In words: β2 ECD induced phenotype assay in HEK293. The note with it: HEK293, do not express Notch1; FIG. 11A. Type of assay: cell-based. The method, then: as §1
Assay [4] relates to SW620 cells. Kind of assay: Migration assay of SW620 cells treated with β2 ECD. Type of assay: cell-based, human. The note with it: β2 ECD in conditioned media, 0.1% FBS, 18 hours; p=0.0009. The method, then:
Migration assays were performed using the HTS FluoroBlock Multiwell insert system with […] (BD Biosciences, Bedford, Mass.). 10^5 cells/well were seeded into the upper wells and FBS was added to the bottom wells. After 18 hr, cells that migrated to the other side of the trans-well membrane were stained in 10 um YO-PRO-1 iodide (Invitrogen, Eugene, Oreg.) and quantitated using the fluorescence plate reader Spectra Max GeminiEM (Molecular Devices, Sunnyvale, Calif.).

Another assay concerns CHO cells. Kind of assay: Methotrexate resistance in CHO cells (trypan blue). It counts as cell-based, Chinese Hamster. The conditions noted are these: 200 nM methotrexate for 48 hours; 60% of control-treated cells died; p=0.01. The protocol: Resistance to starvation: SW620 cells were seeded into 6 well plates at 25% confluence in complete media overnight. This media was replaced the next morning with media lacking FBS. For the assay, cells were detached using trypsin, washed, and stained in 0.4% Trypan Blue (Invitrogen, Carlsbad, Calif.). Total cells and dead cells were counted using a hemocytometer. Assays were performed in triplicate. Doxorubicin resistance: 2×10^4 SW620 cells were seeded in 96 well clear bottom black plates (Corning Inc., Corning, N.Y.) with serial dilutions of doxorubicin hydrochloride (Sigma-Aldrich, St. Louis, Mo.) and incubated for 5 days. Cell viability was measured by using Cell Titer Glo Luminescent Cell Viability Kit (Promega, Madison, Wis.). Luminescence was quantified using an Envision 2103 multilabel reader (PerkinElmer, Finland). Methotrexate resistance: 5×10^5 CHO cells were seeded in 6-well plates with β2 ECD in conditioned medium or control conditioned medium containing 200 nm methotrexate (Genentech Inc.). Cells were detached from the plate and stained with Trypan Blue 0.4% (Invitrogen, Carlsbad, Calif.) as described.

Assay [5] has as its system SW620 cells. In words: E-cadherin and vimentin staining of SW620 cells treated with β2 ECD. It counts as cell-based, human. The method, then: as §1
Assay [6] relates to Twist1 and HES1 transcript. In words: Transcript expression (microarray, RT-PCR) in SW620 cells treated with β2 ECD. It counts as cell-based, human. The method, then: HES1 and Twist1 transcript expression from 0-72 hours in SW620 cells treated β2 ECD in conditioned medium. RNA was extracted from cells at 0, 6, 18, 24, 48, and 72 hour timepoints and microarray analysis performed on Agilent Whole Human Genome microarrays versus a universal reference RNA. Log ratio (Y-axis) is plotted against time in hours (X-axis). Transcript data for 2 independent HES1 oligonucleotide probe sequences and for Twist1 are shown.
RT-PCR analysis of Twist1 transcript expression at 0, 6, and 18 hr timepoints in SW620 cells treated with β2 ECD. Twist1 expression was normalized to housekeeping gene RPL19.

Assay [7] deals with T1, Notch1 ECD (EGF repeats 6-36) (Homo sapiens, UniProt P46531).
T1 construct: Notch1 ECD region containing the majority of the EGF repeat region (repeats 6-36); FLAG (C)
In words: Direct binding of β2 ECD and Notch1 ECD (Ni-NTA pull-down, immunoblot). The note with it: approximately 1 nM Notch1 ECD and 20 nM β2 ECD; vs control conditioned media with irrelevant histidine-tagged protein. The protocol: Immunoprecipitation: cells were removed from culture plates using 5 mm EDTA and lysed in TBS buffer containing 0.5% NP-40, EDTA-free protease inhibitor (Roche Diagnostics, Indianapolis, Ind.) and 1 mm PMSF. The cell lysate was incubated with pre-saturated protein G-agarose (Roche Diagnostics, Indianapolis, Ind.) at 4° C. for 1.5 hour followed by incubation with α-β2 monoclonal antibody at 4° C. for 2 hours. This cell lysate and antibody mixture was then incubated with pre-saturated protein G-agarose at 4° C. overnight. The agarose was collected and proteins were eluted in Tris-Glycine gel loading buffer (Invitrogen, Carlsbad, Calif.) for immunoblot analysis. Direct binding: conditioned media was collected as described above, incubated with FLAG-tagged Notch1 ECD:6-36 (5 μg) in 15 ml for 2 hours at room temperature with shaking 50 μl of Ni-NTA agarose bead slurry (Qiagen) was added with incubation for 2 hours at room temperature with shaking. Ni-NTA beads were collected by centrifugation and washed 3 times with PBS. Alternatively, conditioned media was treated with Ni-NTA beads to enrich for β2 and the resulting slurry incubated with Notch1 ECD:6-36 (5 μg) in 1 ml PBS and incubated and washed as described. Samples were eluted into 2× loading buffer. […]
On the technique in general: In western blotting, separated proteins are transferred to a membrane and probed.

The target of assay [8] is T2, Notch1 ECD fragment containing EGF repeats 10-21 (Homo sapiens, UniProt P46531).
T2 construct: purified fragments of the Notch1 ECD, containing either EGF repeats 10-21 or 22-33; FLAG (C)
In words: Direct binding of β2 ECD and Notch1 ECD fragment EGF 10-21. The note with it: α-FLAG immunoblot.

Assay [9] concerns the target T3, Notch1 ECD fragment containing EGF repeats 22-33 (Homo sapiens, UniProt P46531).
T3 construct: purified fragments of the Notch1 ECD, containing either EGF repeats 10-21 or 22-33; FLAG (C)
Kind of assay: Direct binding of β2 ECD and Notch1 ECD fragment EGF 22-33. The note with it: α-FLAG immunoblot.

Another assay has as its system Notch1 NICD. In words: Translocation of Notch1 NICD to nucleus (confocal immunofluorescence). Type of assay: cell-based, human. The conditions noted are these: SW620 cells 6 hours after treatment with β2 ECD in conditioned media; 100 um Lactacystin. The protocol: as §1, with “Inc.).” for “Inc.). Secondary antibodies were as follows: Cy3-conjugated rabbit α-mouse IgG or Cy3-conjugated donkey α-rabbit IgG (Jackson Lab, Bar Harbor, Me.). Slides were mounted with Vectashield mounting media with DAPI (4′,6-diamidino-2-phenylindole) (Vector Lab, Burlingame, Calif.).”
Activation of Notch1 by ligands results in cleavage to release the NICD, which translocates to the nucleus, and in concert with other proteins, directly regulates Notch target gene transcription. We analyzed whether nuclear NICD could be detected in cells in response to β2. […]

The results in this text go back to patent publication US8563695B2, “Antibodies that bind β2” (Genentech, Inc., priority 2007, dated 2013).

T2 sequence (P46531 372-827 limits assumed): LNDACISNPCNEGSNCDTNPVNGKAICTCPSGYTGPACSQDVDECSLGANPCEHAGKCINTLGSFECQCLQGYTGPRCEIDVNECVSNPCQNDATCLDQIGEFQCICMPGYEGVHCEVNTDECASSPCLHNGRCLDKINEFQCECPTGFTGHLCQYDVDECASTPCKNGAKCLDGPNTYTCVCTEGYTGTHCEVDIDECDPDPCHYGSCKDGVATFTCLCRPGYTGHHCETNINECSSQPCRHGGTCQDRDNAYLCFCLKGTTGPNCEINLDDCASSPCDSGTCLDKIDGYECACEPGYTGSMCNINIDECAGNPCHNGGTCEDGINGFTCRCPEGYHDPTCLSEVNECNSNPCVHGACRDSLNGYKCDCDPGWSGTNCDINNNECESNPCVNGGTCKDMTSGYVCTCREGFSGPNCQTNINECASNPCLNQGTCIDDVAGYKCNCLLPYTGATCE
T1 sequence (P46531 218-1426 limits assumed): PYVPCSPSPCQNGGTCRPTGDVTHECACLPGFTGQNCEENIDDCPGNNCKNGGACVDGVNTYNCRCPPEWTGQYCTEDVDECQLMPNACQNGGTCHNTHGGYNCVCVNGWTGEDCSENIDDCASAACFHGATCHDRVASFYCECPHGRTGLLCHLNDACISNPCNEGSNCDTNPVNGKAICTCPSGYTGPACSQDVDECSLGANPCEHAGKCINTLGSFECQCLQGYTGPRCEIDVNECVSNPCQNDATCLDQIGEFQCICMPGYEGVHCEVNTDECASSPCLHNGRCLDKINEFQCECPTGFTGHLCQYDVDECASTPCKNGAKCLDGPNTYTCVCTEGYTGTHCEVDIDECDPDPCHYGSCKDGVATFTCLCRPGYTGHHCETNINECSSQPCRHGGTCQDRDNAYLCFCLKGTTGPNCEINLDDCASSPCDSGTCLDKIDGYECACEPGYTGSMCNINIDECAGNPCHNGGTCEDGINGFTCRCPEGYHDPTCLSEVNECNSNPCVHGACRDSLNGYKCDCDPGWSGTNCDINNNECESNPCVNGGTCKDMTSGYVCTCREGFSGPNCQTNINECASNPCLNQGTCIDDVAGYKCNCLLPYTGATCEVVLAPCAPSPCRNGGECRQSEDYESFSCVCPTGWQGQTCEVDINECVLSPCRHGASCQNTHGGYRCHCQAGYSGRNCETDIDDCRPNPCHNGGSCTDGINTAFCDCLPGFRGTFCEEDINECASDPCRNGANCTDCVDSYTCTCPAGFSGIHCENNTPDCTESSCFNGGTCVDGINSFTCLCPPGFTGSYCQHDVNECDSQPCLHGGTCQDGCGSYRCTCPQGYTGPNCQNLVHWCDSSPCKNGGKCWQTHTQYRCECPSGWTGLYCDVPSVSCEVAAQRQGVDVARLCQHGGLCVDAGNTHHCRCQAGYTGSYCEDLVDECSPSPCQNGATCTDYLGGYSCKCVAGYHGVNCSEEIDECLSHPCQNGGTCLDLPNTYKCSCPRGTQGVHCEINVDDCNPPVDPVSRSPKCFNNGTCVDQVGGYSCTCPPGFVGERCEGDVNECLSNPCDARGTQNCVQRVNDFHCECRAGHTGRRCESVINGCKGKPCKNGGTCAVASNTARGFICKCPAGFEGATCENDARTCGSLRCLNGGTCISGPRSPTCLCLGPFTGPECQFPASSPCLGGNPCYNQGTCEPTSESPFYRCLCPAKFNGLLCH
T3 sequence (P46531 829-1305): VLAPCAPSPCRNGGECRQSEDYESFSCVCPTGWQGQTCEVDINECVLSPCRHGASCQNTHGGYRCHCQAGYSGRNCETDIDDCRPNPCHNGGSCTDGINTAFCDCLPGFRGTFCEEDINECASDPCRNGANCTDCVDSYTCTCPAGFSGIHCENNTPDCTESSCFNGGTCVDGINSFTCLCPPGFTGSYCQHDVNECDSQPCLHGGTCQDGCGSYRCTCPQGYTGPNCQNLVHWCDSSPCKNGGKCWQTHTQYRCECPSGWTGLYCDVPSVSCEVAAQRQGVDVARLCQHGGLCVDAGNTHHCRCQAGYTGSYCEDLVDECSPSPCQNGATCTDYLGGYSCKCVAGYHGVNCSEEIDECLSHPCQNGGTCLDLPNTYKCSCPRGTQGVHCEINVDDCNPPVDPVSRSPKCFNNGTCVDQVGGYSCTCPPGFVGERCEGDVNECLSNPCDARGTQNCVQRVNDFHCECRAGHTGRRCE

“Jagged1: Notch ligand of the Jagged family, added exogenously (co-culture or plate-bound)”: the “Induction of EMT or related morphological change” value in the assay with SW620 cells [1] is “no evidence of induction of EMT or related morphological change”.
With `C[C@H](NC(=O)Cc1cc(F)cc(F)c1)C(=O)NC(C(=O)OC(C)(C)C)c1ccccc1` (stereo partly drawn) [DAPT, N—[N-(3,5-difluorophenylacetyl-L-alanine)]-S-phenylglycine t-butylester], the E-cadherin staining entry with SW620 cells [2] (DAPT 500 nM in DMSO, SW620 cells treated with β2 ECD in conditioned media) was “remained E-cadherin positive”. The “E-cadherin levels, quantitative analysis of staining” value in the assay on SW620 cells [2] (DAPT-treated vs DMSO, β2-ECD treated cells, p=0.00001) was “significantly different”.

B1: β2 ECD: C-terminal polyhistidine-tagged (HIS8) extracellular domain of β2 (SCN2B) secreted from CHO cells, used in conditioned media (protein)
chain: MEVTVPATLNVLNGSDARLPCTFNSCYTVNHKQFSLNWTYQECNNCSEEMFLQFRMKIINLKLERFQDRVEFSGNPSKYDVSVMLRNVQPEDEGIYNCYIMNPPDRHRGHGKIHLQVLMEEPPERDSTVAHHHHHHHH
In the case of B1, the “Phenotypic changes (elongation, enlargement, actin cytoskeleton remodeling)” value in assay [3] is given as “capable of inducing phenotypic changes”. Also, the “Phenotypic change in response to β2” value in the assay on HEK293 cells was “no phenotypic change”. Besides, the “Migration of SW620 cells across transwell membrane” value in the assay on SW620 cells [4] is on record as “significant increase in migration”. For the same molecule, in the assay with CHO cells, the “Cell death as percentage of total cells” value is given as 10%. Also, the “E-cadherin protein levels (immunofluoresence and FACS)” value in the assay with SW620 cells [5] (β2 ECD in conditioned media for 48 hours) is recorded as “greatly reduced E-cadherin protein levels”. The “Vimentin protein expression (immunofluorescent staining)” value in the assay with SW620 cells [5] (β2 ECD in conditioned media, from otherwise undetectable levels) is on record as “substantial increase in vimentin protein expression”. The Twist1 transcript expression result in assay [6] (6 hours after treatment with β2 ECD, oscillating at subsequent timepoints) is listed as “induction of Twist1 transcript”. Further, the HES1 transcript expression result in [6] (at 6 hours after β2 ECD in conditioned media) is given as “elevated HES1 transcript”. Besides, the “Binding to FLAG-tagged Notch1 ECD (repeats 6-36)” value in assay [7] was “recovery of tagged Notch1”. Also, the “Binding to Notch1 ECD fragment EGF repeats 10-21” value in assay [8] was “specifically bound”. Moreover, in assay [9], the “Binding to Notch1 ECD fragment EGF repeats 22-33” value is given as “no detectable binding”. The “Nuclear Notch1 NICD staining” value in the assay on Notch1 NICD is given as “nuclear NICD was detected”.
